B1: HCoV-229E S-protein S1 region, residues 17–560, WT (domain or fragment)
chain: QTTNGLNTSYSVCNGCVGYSENVFAVESGGYIPSDFAFNNWFLLTNTSSVVDGVVRSFQPLLLNCLWSVSGLRFTTGFVYFNGTGRGDCKGFSSDVLSDVIRYNLNFEENLRRGTILFKTSYGVVVFYCTNNTLVSGDAHIPFGTVLGNFYCFVNTTIGNETTSAFVGALPKTVREFVISRTGHFYINGYRYFTLGNVEAVNFNVTTAETTDFCTVALASYADVLVNVSQTSIANIIYCNSVINRLRCDQLSFDVPDGFYSTSPIQSVELPVSIVSLPVYHKHTFIVLYVDFKPQSGGGKCFNCYPAGVNITLANFNETKGPLCVDTSHFTTKYVAVYANVGRWSASINTGNCPFSFGKVNNFVKFGSVCFSLKDIPGGCAMPIVANWAYSKYYTIGSLYVSWSDGDGITGVPQPVEGVSSFMNVTLDKCTKYNIYDVSGVGVIRVSNDTFLNGITYTSTSGNLLGFKDVTKGTIYSITPCNPPDQLVVYQQAVVGAMLSENFTSYGFSNVVELPKFFYASNGTYNCTDAVLTYSSFGVCADGS
B2: HCoV-229E S-protein receptor-binding domain (RBD), residues 293–435, WT (Class I) (domain or fragment)
chain: LPVYHKHTFIVLYVDFKPQSGGGKCFNCYPAGVNITLANFNETKGPLCVDTSHFTTKYVAVYANVGRWSASINTGNCPFSFGKVNNFVKFGSVCFSLKDIPGGCAMPIVANWAYSKYYTIGSLYVSWSDGDGITGVPQPVEGV

Experiments:
[1] = target: T1, soluble ectodomain of human aminopeptidase N (hAPN), residues 66–967, WT (human, UniProt P15144 66-967); experiment: SPR; conditions: both partners purified
[2] = target: T1, soluble ectodomain of human …; experiment: SPR; conditions: both partners purified; remark: listed apart in the source

T1 sequence (P15144 66-967): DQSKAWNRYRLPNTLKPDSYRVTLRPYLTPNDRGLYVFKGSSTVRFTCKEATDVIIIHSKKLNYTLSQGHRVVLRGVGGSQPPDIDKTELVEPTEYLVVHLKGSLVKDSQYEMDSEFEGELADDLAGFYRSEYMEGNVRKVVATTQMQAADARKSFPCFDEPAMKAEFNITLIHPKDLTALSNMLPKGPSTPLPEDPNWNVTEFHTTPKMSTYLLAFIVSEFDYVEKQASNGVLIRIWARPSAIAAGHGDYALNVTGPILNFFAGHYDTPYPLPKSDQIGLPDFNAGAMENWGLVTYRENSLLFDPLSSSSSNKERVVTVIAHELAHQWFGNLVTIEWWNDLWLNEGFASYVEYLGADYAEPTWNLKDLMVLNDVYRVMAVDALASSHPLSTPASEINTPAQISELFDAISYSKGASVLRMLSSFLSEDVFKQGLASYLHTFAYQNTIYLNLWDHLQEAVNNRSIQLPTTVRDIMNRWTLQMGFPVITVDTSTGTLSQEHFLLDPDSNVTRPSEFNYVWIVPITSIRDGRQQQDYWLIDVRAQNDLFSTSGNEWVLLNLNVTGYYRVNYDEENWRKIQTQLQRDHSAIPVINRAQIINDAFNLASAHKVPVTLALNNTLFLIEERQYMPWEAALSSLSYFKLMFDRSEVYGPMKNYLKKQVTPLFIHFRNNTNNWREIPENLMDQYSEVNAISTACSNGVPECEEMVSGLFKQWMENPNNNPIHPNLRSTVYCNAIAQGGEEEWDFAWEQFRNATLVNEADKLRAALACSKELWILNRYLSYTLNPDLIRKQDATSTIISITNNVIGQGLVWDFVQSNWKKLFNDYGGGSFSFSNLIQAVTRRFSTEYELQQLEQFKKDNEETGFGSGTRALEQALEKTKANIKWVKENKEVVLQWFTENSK

Binder	Kd [1] [nM]	koff [1] [s⁻¹]	kon [1] [M⁻¹ s⁻¹]	Kd [2] [nM]	koff [2] [s⁻¹]	kon [2] [M⁻¹ s⁻¹]
B1	1630	0.06	39000	–	–	–
B2	430	0.16	360000	434	0.16	360000
